In IntAct's records for PubMed 24286120:

B1: Malignant fibrous histiocytoma-amplified sequence 1 (Homo sapiens), Q9Y4C4 (parent)
chain: MAGMDSGNLKTARLWRDAALRARKLRSNLRQLTLTAAGACPGAGADALESPASPQLVLPANLGDIEALNLGNNGLEEVPEGLGSALGSLRVLVLRRNRFARLPPAVAELGHHLTELDVSHNRLTALGAEVVSALRELRKLNLSHNQLPALPAQLGALAHLEELDVSFNRLAHLPDSLSCLSRLRTLDVDHNQLTAFPRQLLQLVALEELDVSSNRLRGLPEDISALRALKILWLSGAELGTLPAGFCELASLESLMLDNNGLQALPAQFSCLQRLKMLNLSSNLFEEFPAALLPLAGLEELYLSRNQLTSVPSLISGLGRLLTLWLDNNRIRYLPDSIVELTGLEELVLQGNQIAVLPDHFGQLSRVGLWKIKDNPLIQPPYEVCMKGIPYIAAYQKELAHSQPAVQPRLKLLLMGHKAAGKTLLRHCLTEERVEGCPGGGDKEKCYPPSPPPVSKGIEVTSWTADASRGLRFIVYDLAGDESYEVIQPFFLSPGALYVLVVNLATYEPRHFPTTVGSFLHRVGARVPHAVVCIVGTHADLCGERELEEKCLDIHRQIALQEKHDAEGLSRLAKVVDEALARDFELRSASPHAAYYGVSDKNLRRRKAHFQYLLNHRLQILSPVLPVSCRDPRHLRRLRDKLLSVAEHREIFPNLHRVLPRSWQVLEELHFQPPQAQRLWLSWWDSARLGLQAGLTEDRLQSALSYLHESGKLLYFEDSPALKEHVFHNLTRLIDILNVFFQRDPSLLLHKLLLGTSGEGKAEGESSPPMARSTPSQELLRATQLHQYVEGFLLHGLLPAHVIRLLLKPHVQAQQDLQLLLELLEKMGLCYCLNKPKGKPLNGSTAWYKFPCYVQNEVPHAEAWINGTNLAGQSFVAEQLQIEYSFPFTFPLGLFARYSVQINSHVVHRSDGKFQIFAYRGKVPVVVSYRPARGVLQPDTLSIASHASLPNIWTAWQAITPLVEELNVLLQEWPGLHYTVHILCSKCLKRGSPNPHAFPGELLSQPRPEGVAEIICPKNGSERVNVALVYPPTPTVISPCSKKNVGEKHRNQ

Variants of: B1
Details: with ch60_human HSPD1, P10809
Sequence of ch60_human HSPD1, P10809 (P10809 whole entry): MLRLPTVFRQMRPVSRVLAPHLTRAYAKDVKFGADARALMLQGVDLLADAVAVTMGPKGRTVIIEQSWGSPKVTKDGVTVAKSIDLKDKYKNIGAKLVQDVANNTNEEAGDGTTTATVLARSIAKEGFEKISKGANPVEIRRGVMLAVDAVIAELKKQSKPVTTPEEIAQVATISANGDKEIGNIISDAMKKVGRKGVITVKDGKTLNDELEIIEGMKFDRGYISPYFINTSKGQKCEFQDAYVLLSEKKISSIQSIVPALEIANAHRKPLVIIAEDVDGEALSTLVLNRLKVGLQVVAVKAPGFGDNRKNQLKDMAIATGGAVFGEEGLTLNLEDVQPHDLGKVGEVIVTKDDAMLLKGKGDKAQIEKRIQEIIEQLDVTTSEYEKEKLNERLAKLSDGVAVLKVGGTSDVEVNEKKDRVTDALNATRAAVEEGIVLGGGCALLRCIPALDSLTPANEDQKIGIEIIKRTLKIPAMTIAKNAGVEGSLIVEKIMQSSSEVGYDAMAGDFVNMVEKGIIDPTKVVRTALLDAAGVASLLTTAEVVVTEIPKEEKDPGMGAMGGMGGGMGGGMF

effect of a mutation on the interaction	Variant
increasing interaction	K422A
